Consider 13 molecules from patent EP4714976A1 (Sunshine Lake Pharma Co., Ltd., dated 2026).

As usually defined, the EC50 is the concentration giving half of the maximal effect. In general, Kd refers to the equilibrium constant for the complex coming apart. What is called koff is a measure of how fast the partners let go of each other. The kon is a measure of how fast the partners come together.

Substitutions are numbered along the chain they refer to.

B1: 3H9 scFv-Fc (Fc fusion)
chain: EIQLQQSGAELVKPGASVKMSCKASGYTFSFYNMHWVKRTPGQGLEWIGLIYPDNGDTSYNQKFKGKATLTADTSSSTAYMQLSSLTSEDSAVYYCARGGLDYWGQGTTLTVSSGGGGSGGGGSGGGGSDIVLTQSPASLSVSVGETVTITCRASENIYSNLAWYQQKQGKSPQLLVYAATNLADGVPSRFSGSGSGTQYSLKINSLQSEDFGSYYCQHFWGTPYTFGGGTKLELKESKYGPPCPPCPAPEAAGGPSVFLFPPKPKDTLMISRTPEVTCVVVDVSQEDPEVQFNWYVDGVEVHNAKTKPREEQFNSTYRVVSVLTVLHQDWLNGKEYKCKVSNKGLPSSIEKTISKAKGQPREPQVYTLPPSQEEMTKNQVSLTCLVKGFYPSDIAVEWESNGQPENNYKTTPPVLDSDGSFFLYSKLTVDKSRWQEGNVFSCSVMHEALHNHYTQKSLSLSLG
notes: scFv-Fc dimer
B2: 3D6 scFv-Fc (Fc fusion)
chain: QVQLQQSGAELVKPGASVKMSCKASGYTFRYYNMHWVKRTPGQGLEWIGLIYPDNGDTSYNQKFKGKATLTADTSSSTAYMQLSSLTSEDSAVYYCARGGLDYWGQGTSLTVSSGGGGSGGGGSGGGGSDIQMTQSPASLSVSVGETVTITCRASENIYSNLAWYQQKQGKSPQLLVYNAKTLADGVPSRFSGSGSGTQYSLKINSLQPEDFGSYYCQHFWSTPFTFGSGTKLELKESKYGPPCPPCPAPEAAGGPSVFLFPPKPKDTLMISRTPEVTCVVVDVSQEDPEVQFNWYVDGVEVHNAKTKPREEQFNSTYRVVSVLTVLHQDWLNGKEYKCKVSNKGLPSSIEKTISKAKGQPREPQVYTLPPSQEEMTKNQVSLTCLVKGFYPSDIAVEWESNGQPENNYKTTPPVLDSDGSFFLYSKLTVDKSRWQEGNVFSCSVMHEALHNHYTQKSLSLSLG
notes: scFv-Fc dimer
B3: 1C10 scFv-Fc (Fc fusion)
chain: B2 chain with Q132V, V142A, E156G, Y159H, S160N, N161Y, F225Y, S229G, L235M
notes: scFv-Fc dimer
B4: 3B4 scFv-Fc (Fc fusion)
chain: EVQLQQSGADLVKPGASVKMSCKASGYTFSYYNMHWVRRTPGQGLEWIGLIYPDNGDTSYNQKFKGKATLTADTSSSTAYMQLSSLTSEDSAVYYCARGGLDYWGQGTTLTVSSGGGGSGGGGSGGGGSDIQMIQSPASMSASVGETVTITCGASENIYGALNWYQRKQGKSPQLLIYGATNLADGMSSRFSGSGSGRQYSLKISSLHPDDVATYYCQNVLSTPYTFGGGTKLEMKESKYGPPCPPCPAPEAAGGPSVFLFPPKPKDTLMISRTPEVTCVVVDVSQEDPEVQFNWYVDGVEVHNAKTKPREEQFNSTYRVVSVLTVLHQDWLNGKEYKCKVSNKGLPSSIEKTISKAKGQPREPQVYTLPPSQEEMTKNQVSLTCLVKGFYPSDIAVEWESNGQPENNYKTTPPVLDSDGSFFLYSKLTVDKSRWQEGNVFSCSVMHEALHNHYTQKSLSLSLG
notes: scFv-Fc dimer
B5: 3E3 scFv-Fc (Fc fusion)
chain: QVQLQQPGAVLVKPGASVRMSCKASGYTFPYYNVHWVKRTPGQGLEWIGLIYPDNGDTSYNQKFTGKATLTADTSSSTAYMQLSSLTSEDSAVYYCARGGLDYWGQGTTLTVSAGGGGSGGGGSGGGGSDVQITQSPASLSASVGETVTITCGASENIYGALNWYQRKQGKSPQLLIYGATNLADGMSSRFSGSGSGRQYSLKISSLHPDDVATYYCQNVLSTPYTFGGGTKLEIKESKYGPPCPPCPAPEAAGGPSVFLFPPKPKDTLMISRTPEVTCVVVDVSQEDPEVQFNWYVDGVEVHNAKTKPREEQFNSTYRVVSVLTVLHQDWLNGKEYKCKVSNKGLPSSIEKTISKAKGQPREPQVYTLPPSQEEMTKNQVSLTCLVKGFYPSDIAVEWESNGQPENNYKTTPPVLDSDGSFFLYSKLTVDKSRWQEGNVFSCSVMHEALHNHYTQKSLSLSLG
notes: scFv-Fc dimer
B6: 1G6 scFv-Fc (Fc fusion)
chain: EIQLQQSGAELVKPGASVKMSCKASGYTFRYYNMHWVKRTPGQGLEWIGLIYPDNGDTSYNQKFKGKATLTADTSSSTAYMQLSSLTSEDSAVYYCARGGLDYWGQGTSLTVSSGGGGSGGGGSGGGGSNIVMTQSHKFMSTSVGDRVSITCKASQDVNTDVAWYQQKPGQSPKLLIYSASYRYTGVPTRFTGSGSGTDFTFTISGVQAEDLADYYCQQHYNTPYTFGGGTKLELKESKYGPPCPPCPAPEAAGGPSVFLFPPKPKDTLMISRTPEVTCVVVDVSQEDPEVQFNWYVDGVEVHNAKTKPREEQFNSTYRVVSVLTVLHQDWLNGKEYKCKVSNKGLPSSIEKTISKAKGQPREPQVYTLPPSQEEMTKNQVSLTCLVKGFYPSDIAVEWESNGQPENNYKTTPPVLDSDGSFFLYSKLTVDKSRWQEGNVFSCSVMHEALHNHYTQKSLSLSLG
notes: scFv-Fc dimer
B7: 3A8 scFv displayed on phage (scFv)
scFv: QVQLQQSGAELVKPGASVKMSCKASGYTFTIYNIHWVRQTPGQGLEWIGLIYPDNGDTSYNQKFKAKATLTADKSSSTAYMQLSSLTSEDSAVYYCARGGFDYWGQGTSLTVSSGGGGSGGGGSGGGGSDIVMTQSQKFMSTSVGDRVSVTCKASQNVGTNVAWYQQKPGQSPKALIYSASYRYSGVPDRFTGSGSGTDFTLTISNVQAEDLADYFCQQHYSTPYTFGGGTKLEMK
B8: 3E7 scFv displayed on phage (scFv)
scFv: B7 scFv with S109T, D130N, N206G, F216Y, S222N, M235I
B9: 2B1 scFv displayed on phage (scFv)
scFv: EVQLQQSGAELVKPGASVKMSCKASGYTFASYNLHWVKQTPGQGLEWIGLIYPENGDTSYNQKFKGKATLTADKSSSTAYIQLSSLTSEDSAVYFCARGGFDYWGQGTSLTVSSGGGGSGGGGSGGGGSDIQMIQSPASLSVSVGETVTITCRASENIYSNLAWYQQKQGKSPQLLVYNAKTLADGVPSRFSGSGSGTQYSLKINSLQPEDFGSYYCQHFWSTPYTFGGGTKLEIK
B10: 3H6 scFv displayed on phage (scFv)
scFv: QVQLQQSGAELVKPGASVKMSCKASGYTFSFYNIHWVRQTPGQGLEWIGLIYPDNGDTSYNQKFKAKATLTADKSSSTAYMQLSSLTSEDSAVYYCARGGFDYWGQGTTLTVSSGGGGSGGGGSGGGGSDIQMTQSPASLSASVGETVTITCRASENIYSYLAWYQQKQGKSPQLLVYNAKTLAEGVPSRFSGSGSGTQFSLKINSLQPEDFGSYYCQHHYGTPYTFGGGTKLEMK
B11: 3A8 scFv-Fc (Fc fusion)
chain: QVQLQQSGAELVKPGASVKMSCKASGYTFTIYNIHWVRQTPGQGLEWIGLIYPDNGDTSYNQKFKAKATLTADKSSSTAYMQLSSLTSEDSAVYYCARGGFDYWGQGTSLTVSSGGGGSGGGGSGGGGSDIVMTQSQKFMSTSVGDRVSVTCKASQNVGTNVAWYQQKPGQSPKALIYSASYRYSGVPDRFTGSGSGTDFTLTISNVQAEDLADYFCQQHYSTPYTFGGGTKLEMKESKYGPPCPPCPAPEAAGGPSVFLFPPKPKDTLMISRTPEVTCVVVDVSQEDPEVQFNWYVDGVEVHNAKTKPREEQFNSTYRVVSVLTVLHQDWLNGKEYKCKVSNKGLPSSIEKTISKAKGQPREPQVYTLPPSQEEMTKNQVSLTCLVKGFYPSDIAVEWESNGQPENNYKTTPPVLDSDGSFFLYSKLTVDKSRWQEGNVFSCSVMHEALHNHYTQKSLSLSLG
notes: scFv-Fc dimer
B12: 1A3 scFv displayed on phage (scFv)
scFv: QVQLQQPGAELVKPGASVKMSCKASGYTFASYNLHWVKQTPGQGLEWIGLIYPENGDTSYNQKFKGKATLTADKSSSTAYIQLSSLTSEDSAVYFCARGGFDYWGQGTTLTVSQGGGGSGGGGSGGGGSDIQMTQSPASLSASVGETVTITCGASENIYGALNWYQRKQGKSPQLLIYGATNLADGMSSRFSGSGSGRQYSLKISSLHPDDVATYYCQNVLSTPYTFGGGTKLEIK
B13: 3D7 scFv displayed on phage (scFv)
scFv: QVQLQQSGAELVKPGASVKMSCKASGYTFSFYNMHWVKRTPGRGLEWIGLIYPDNGDTSYNQKFKGKATLTADTSSSTAYMQLSSLTSEDSAVYYCARGGLDYWGQGTSLTVSSGGGGSGGGGSGGGGSEIVLTQSPASLAVSLGQRATISCKASQSVDYDGDSYMNWYQQKPGQPPKLLIYGISNRFSGVPDRFSGSGSGTDFTLKISTIKPEDLGMYYCLQGTHQPYTFGGGTKLEIK

In one test the target is T1, recombinant cynomolgus monkey FGFR2b (cynomolgus monkey).
T1 construct: extracellular domain; bought; also called cynomolgus macaque FGFR2b
The experiment in a line: ELISA, antibody 1ug/mL.
On to B1, for which the “OD (450 nm) value” turned out to be 3.29.

On to B2, for which the “OD (450 nm) value” came to 3.4.

B3: the “OD (450 nm) value” stood at 3.3.

Regarding B4, the “OD (450 nm) value” is 3.32.

Turning to B5, the “OD (450 nm) value” was determined as 3.09.

Take B6: the “OD (450 nm) value” was 3.24.

In another test the target is T2, extracellular domain of FGFR2c protein (Example 1) (UniProt P21802 22-377).
T2 construct: extracellular domain
T2 sequence (P21802 22-377): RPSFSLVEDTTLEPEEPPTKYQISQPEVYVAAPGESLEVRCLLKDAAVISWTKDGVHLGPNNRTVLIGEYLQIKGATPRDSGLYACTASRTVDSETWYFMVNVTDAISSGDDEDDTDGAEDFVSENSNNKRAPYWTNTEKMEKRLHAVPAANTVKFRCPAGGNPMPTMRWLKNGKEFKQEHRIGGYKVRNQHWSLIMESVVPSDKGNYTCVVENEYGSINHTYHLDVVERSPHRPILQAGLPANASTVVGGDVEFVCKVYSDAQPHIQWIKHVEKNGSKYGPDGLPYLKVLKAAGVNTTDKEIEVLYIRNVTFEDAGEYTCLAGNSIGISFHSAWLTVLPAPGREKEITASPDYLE
The experiment in a line: phage ELISA. In general terms: An ELISA detects its analyte on a solid surface through an enzyme-linked reagent.
As for B7, the binding result is recorded as “no binding”.

Consider B8, for which the binding result is recorded as “no binding”.

As to B9, the binding result is given as “no binding”.

In the case of B10, the binding result was “no binding”.

Another test deals with FGFR2c (acro) (UniProt P21802 22-377). Description: ELISA, antibody 10 µg/mL.
Sequence of FGFR2c (acro) (P21802 22-377): as above
For the molecule B1, the “OD (450 nm) value” amounted to 0.45.

On to B2, for which the “OD (450 nm) value” amounted to 0.542.

For the molecule B3, the “OD (450 nm) value” was determined as 0.553.

For B4, the “OD (450 nm) value” is 0.327.

For the next test, the target named is T3, human FGFR2b (Kaixia Biotechnology, catalog number FGR-HM1BB) (human, UniProt P21802-3 22-378).
T3 construct: extracellular domain; bought; also called hFGFR2b; human FGFR2b protein
T3 sequence (P21802 other isoform, or with tags, fused parts or gaps): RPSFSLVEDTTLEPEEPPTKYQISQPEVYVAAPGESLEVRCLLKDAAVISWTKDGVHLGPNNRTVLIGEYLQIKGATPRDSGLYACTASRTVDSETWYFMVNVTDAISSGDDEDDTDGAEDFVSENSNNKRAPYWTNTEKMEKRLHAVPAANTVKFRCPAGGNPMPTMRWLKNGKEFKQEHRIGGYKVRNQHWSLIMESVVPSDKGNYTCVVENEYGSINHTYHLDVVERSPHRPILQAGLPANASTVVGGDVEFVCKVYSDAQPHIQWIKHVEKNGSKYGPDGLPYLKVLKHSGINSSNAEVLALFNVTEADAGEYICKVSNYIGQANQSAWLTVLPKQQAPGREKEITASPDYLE
The experiment in a line: ELISA, FGFR2b coated at 1 µg/ml.
B11 showed an EC50 of 0.0278 µg/mL.

For B1, a half-maximal effect (EC50) was put at 0.0278 µg/mL.

For the molecule B2, the EC50 came to 0.0369 µg/mL.

Regarding B3, the midpoint of the response, the EC50, lay at 0.0159 µg/mL.

As for B4, the EC50 came out at 0.0166 µg/mL.

Regarding B5, the 50% effective concentration (EC50) stood at 0.0273 µg/mL.

In turn, B6 showed a concentration for a half-maximal effect (EC50) of 0.0235 µg/mL.

A further test concerns the target T3, human FGFR2b (Kaixia Biotechnology, …). The experiment in a line: BLI, antibody on AHC2 sensor. For orientation: Biolayer interferometry detects binding as a change in optical thickness at a sensor tip.
On to B11, for which the Kd came out at 3.48 nM, the koff came out at 0.0009 s⁻¹ and the on-rate constant (kon) was determined as 259000 M⁻¹ s⁻¹.

With B1, the affinity, expressed as Kd, was 5.69 nM; the off-rate (koff) came to 0.00152 s⁻¹; the on-rate (kon) came out at 267000 M⁻¹ s⁻¹.

Consider B2, for which the Kd is 15 nM, the koff was found to be 0.00114 s⁻¹ and the kon came to 75900 M⁻¹ s⁻¹.

For the molecule B3, binding was characterised by a dissociation constant (Kd) of 11.1 nM, the off-rate constant (koff) was found to be 0.00278 s⁻¹ and the kon turned out to be 250000 M⁻¹ s⁻¹.

Molecule B4 came in with a dissociation constant Kd of 6.28 nM, an off-rate constant (koff) of 0.00195 s⁻¹ and an on-rate constant (kon) of 311000 M⁻¹ s⁻¹.

For B5, the dissociation constant Kd was 8.18 nM, the dissociation rate constant (koff) came out at 0.00184 s⁻¹ and the kon stood at 225000 M⁻¹ s⁻¹.

B6: the Kd was determined as 3.97 nM, the koff was found to be 0.00149 s⁻¹ and the kon worked out at 374000 M⁻¹ s⁻¹.

The next test deals with T4, FGFR2b on KATO III cells (human, UniProt P21802-3 22-822).
T4 construct: whole, on cells; also called KATO III cells that overexpress FGFR2b
T4 sequence (P21802 other isoform, or with tags, fused parts or gaps): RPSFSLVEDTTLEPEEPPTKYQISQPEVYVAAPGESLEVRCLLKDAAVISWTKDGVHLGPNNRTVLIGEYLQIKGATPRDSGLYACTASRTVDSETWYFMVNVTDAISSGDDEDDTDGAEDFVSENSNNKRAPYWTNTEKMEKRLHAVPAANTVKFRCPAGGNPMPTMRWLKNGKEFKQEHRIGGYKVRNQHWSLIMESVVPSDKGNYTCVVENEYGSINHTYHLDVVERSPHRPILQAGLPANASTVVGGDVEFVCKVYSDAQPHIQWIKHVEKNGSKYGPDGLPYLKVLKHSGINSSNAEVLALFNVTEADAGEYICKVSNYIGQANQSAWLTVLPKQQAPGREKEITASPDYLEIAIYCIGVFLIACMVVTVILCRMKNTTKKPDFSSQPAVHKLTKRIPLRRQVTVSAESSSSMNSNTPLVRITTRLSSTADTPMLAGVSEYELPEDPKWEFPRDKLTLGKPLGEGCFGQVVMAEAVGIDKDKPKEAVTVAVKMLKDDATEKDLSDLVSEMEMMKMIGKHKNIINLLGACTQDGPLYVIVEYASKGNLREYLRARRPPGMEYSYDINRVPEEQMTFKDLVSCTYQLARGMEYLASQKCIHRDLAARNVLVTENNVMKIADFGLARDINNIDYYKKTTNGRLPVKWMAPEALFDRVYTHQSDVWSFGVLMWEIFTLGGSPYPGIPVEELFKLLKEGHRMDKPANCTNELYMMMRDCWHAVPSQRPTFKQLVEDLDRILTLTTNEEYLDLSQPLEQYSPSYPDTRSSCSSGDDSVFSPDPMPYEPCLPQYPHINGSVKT
Description: flow cytometry, KATO III cells. (Flow cytometry measures light scatter and fluorescence of single cells or particles in a stream.)
Molecule B11 returned an EC50 of 0.199 µg/mL.

Molecule B1 displayed an EC50 of 0.161 µg/mL.

As to B2, the concentration giving a half-maximal response (EC50) was 0.136 µg/mL.

B3 registered a concentration for a half-maximal effect (EC50) of 0.152 µg/mL.

B4 returned an EC50 of 0.168 µg/mL.

B5 came in with a concentration for a half-maximal effect (EC50) of 0.376 µg/mL.

With B6, the half-maximal effective concentration (EC50) is 0.186 µg/mL.

The target in a further test is T2, extracellular domain of FGFR2c protein …. Description: phage ELISA. This is another data set of the same source.
Regarding B7, the “OD (450 nm) value” turned out to be 0.065.

Consider B8, for which the “OD (450 nm) value” was 0.034.

Turning to B9, the “OD (450 nm) value” stood at 0.049.

With B12, the “OD (450 nm) value” turned out to be 0.212.

On to B10, for which the “OD (450 nm) value” is 0.062.

As to B13, the “OD (450 nm) value” was found to be 0.037.
